Measured values published in the nanobody polyreactivity screen of Harvey et al. (2022).

Assay: yeast display, Sf9 membrane polyspecificity reagent, FACS + sequencing; frameworks hold sequencing errors
In short: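 Galactose-induced (36–48 hours) yeast carrying a synthetic nanobody display library were exposed to 10% biotinylated, detergent-solubilized Sf9 membrane reagent at 4 °C for 1 hour. FACS followed streptavidin microbead enrichment, using low and high (top ~1%) gates for expression (anti-HA) and reagent binding (streptavidin). Colony PCR, MiSeq 2 × 250 sequencing and CDR-length filtering followed. Labels for polyreactivity reflect the gate of origin.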

Row | Sequence | polyreactivity (PSR sort gate)
1 | QVQLVESGGGLVQAGGSLRLSCAASGRIFSYYTLGWYRQAPGKERELVAAIRISSGGTYYADSVKGRFTISRDNAKNTVYLQMNSLKPEDTAVYYCAARYYGFPSKYDYWGQGTQVTVSS | high polyreactivity
2 | QVQLVESGGGLVQAGGSLRLSCAASGRIFSYYVMGWNRQAPGKERELVAAITSGGSTNYADSEKGRFTISRDNAKNTVYLQMNSLKPEDTAVYYCNRAYTYINRLYGYWGQGTQVTVSS | high polyreactivity
3 | QVQLVESGGGLVQAGGSLRLSCAASGRIFTANAMGWYRQAPGKERELVAAISWRGGSTYYADSVKGRFTISRDNAKNSVYLQLNSLKPEDTAVYYCAAQRYAPYRYEYWGQGTHVTVSS | high polyreactivity
4 | QVQLVESGGGLVQAGGSLRLSCAASGRIFTAYAMGWYRQAPGKERELVASITTSGTTYYADSVKGRFTISRDNSKNTVYLQMNSLKPEDTAVYYCAADYYGYVQGGIQYGYYYLGQGTQVTVSS | low polyreactivity
5 | QVQLVESGGGLVQAGGSLRLSCAASGRIFTAYHMGWYRQAPGKESELVAAITRSSGSTYYADSVKGRFTISRDNAKNTVYLQMIRLKPEVTAVYYCATDGEFWGYDSWGQGTQVTVSS | low polyreactivity
6 | QVQLVESGGGLVQAGGSLRLSCAASGRIFTDYTMGWYRHAPGKERELDAAISKGGSGTYYADSVKGRFTISRDNAKNTVYLQMNSLKPEDTAVYYCNKVISTGEYDYWGQGTQVTVSS | low polyreactivity
7 | QVQLVESGGGLVQAGGSLRLSCAASGRIFTFYAMGWYRQAPGKARELVASITGGGNTYYADSVKGRFTISRDNAKNTVYLQMNSLKPEDTAVYYCAAGFSYFTSVLSLDRYYYWGQGTQVTVSS | low polyreactivity
8 | QVQLVESGGGLVQAGGSLRLSCAASGRIFTFYAMGWYRQAPGKERELVAAISSGGSTYYADSVKGRFTISRDNAKNTVFLQMNILKPEDTAVYYCAAVPVWYADYDYWGQGTQVTVSS | low polyreactivity
9 | QVQLVESGGGLVQAGGSLRLSCAASGRIFTFYARGLDRQAPGKEREMVAAISSGGSTYYADSVKGRFTISRDNAKNTVYLQMNSLKPEDTAVYYCATQGARYYHTYGYWGQGTLVTVSS | low polyreactivity
10 | QVQLVESGGGLVQAGGSLRLSCAASGRIFTGNAMGWYRQAPGKERELVAAITGRGGNTYYADSGKGRFTISRDNAKNTVYLLMNSLKPEDTAGYYGAKVFFHTPIVPEYDYWGQGTHVTVSS | low polyreactivity
11 | QVQLVESGGGLVQAGGSLRLSCAASGRIFTGNAMGWYRQAPGKERELVASITYSDGSTYYADSVKGRFTISRDNAKNTVYFQMNSLKPEDTAVYYCAADILWGQGTQVTVSS | low polyreactivity
12 | QVQLVESGGGLVQAGGSLRLSCAASGRIFTGNVMGLYRQAPGKERELVAAITYRGGSTYYADSVKGRFTISRDNAKNTVYLQMNSLKPEDTAVYYCNTGWDPYGYDYWGQGTQVTVSS | low polyreactivity
13 | QVQLVESGGGLVQAGGSLRLSCAASGRIFTGNVMGWYRQAPGKERELVAAISVSGGRTYYADSVKGRFTISRDNAKNNVYLQMNSLKPEDTAVYYCNARFSRVWYGGDYWGQGTQVTVSS | high polyreactivity
14 | QVQLVESGGGLVQAGGSLRLSCAASGRIFTGYAMGWYRQAPGKERELVATIRSRGGGTYYADSVKGRFTISRDNAKNTVYLQMNSLKPEDTAVYYCAADDYYYYFGTRYGYWRQGTQVTVSS | low polyreactivity
15 | QVQLVESGGGLVQAGGSLRLSCAASGRIFTHNVMGWYRQAPGTERELVAAISGGGGSTYYADSVKGRFTLSRDNAKNNVYKQMNSLKPEDTAVYYCAKDNHYEADRYDYWGQGTQVTVSS | low polyreactivity
16 | QVQLVESGGGLVQAGGSLRLSCAASGRIFTINAMGWYRQAPGKERELVASIRSTGGSTYYADSVKGRFTISRDNAKNTVYLQMNSLKPEDTAVYYCAADGGVAWGYGYWGQGTQVTVSS | low polyreactivity
17 | QVQLVESGGGLVQAGGSLRLSCAASGRIFTIYAMGWYRQAPGKERELVAAISDRGTRTYYADSVKGRFTISRDNAKNTVYLQMNSLKPEDTAVYYCATDALYTYGYYYWGQGTQVTVSS | low polyreactivity
18 | QVQLVESGGGLVQAGGSLRLSCAASGRIFTIYAMGWYRQAPGKERELVAAITRGGNTNYADSVKGRFTISRDNAKNTVYLQMNSLKPEDTAVYDGAVGSRSWPYDYWGQGSQVTVSS | high polyreactivity
19 | QVQLVESGGGLVQAGGSLRLSCAASGRIFTIYAMGWYRQAPGKERELVATISRRGGSTYYADSVKGRFTISRDNAKNTVYFQMNSLKPEETAVYYCAADSVITWWAYDYWGQGTQVTVSS | high polyreactivity
20 | QVQLVESGGGLVQAGGSLRLSCAASGRIFTIYSMGWYRQAPGKERELVATISKSGGITYYADSVKGRFTISRDNAKNTVYLQMNSLKPEDTAVYYCAAAWYYSSRGFHATWGHDYWGQGTQVTVSS | low polyreactivity
21 | QVQLVESGGGLVQAGGSLRLSCAASGRIFTIYTMGWYRQAPGKERELVAAISVNGGRTYYADSVKGRFTISRDNAKNTVYLQMNSLKPEDTAVYYCAARRRFGYHQQRYDYWGQGTQVTVSS | high polyreactivity
22 | QVQLVESGGGLVQAGGSLRLSCAASGRIFTLYTMGWYRQAPGKERELVARITRSGGTTYYADSVKGRFTISRDNSKNTVYLQMNSLKPEDTAVYYCNVDDYFWPGAKFDYWGQGTQVTVSS | low polyreactivity

Row | Sequence | polyreactivity (PSR sort gate)
23 | QVQLVESGGGLVQAGGSLRLSCAASGRIFTPNAMGWCRQAPGKERELVAAITWSGDNTYADSVKGRFTISRDNAKNTVYLQMNSLKPEDTAVYYCAAAYGYGHKKYGYWGQGTQVTVSS | low polyreactivity
24 | QVQLVESGGGLVQAGGSLRLSCAASGRIFTPYAMGWYRQAPRKERELVAVIRDGSTYYADSVKGRFTISRDNAKYNVYLQMKSLIPEDTAVYYCRYDIWVWWSGAYDYWGQGTQVTVSS | low polyreactivity
25 | QVQLVESGGGLVQAGGSLRLSCAASGRIFTPYAMGWYRQAPVKERELVAVIRDGSTYYADSVKGRFTISRDNAKNTVDLLMNSLKPEDTAVYYCRYDIWVWWSGAYDYWGQGTQVTVSS | low polyreactivity
26 | QVQLVESGGGLVQAGGSLRLSCAASGRIFTQYTMGWYRQAPGKERELVAAISRGGGSTYYADSVKGRFTISRDNAKNTVYLQMNSLKPEDTAVYYCAAIRREVVAGDYWGQGTQVTVSS | high polyreactivity
27 | QVQLVESGGGLVQAGGSLRLSCAASGRIFTRNAMGWYRPAPGKERELVAAISSRGGSTYYADSVKGRFTISRDNAKNTVYLQMNSLKPEDTAVYYCAAGYWATYDYWGQGTQVTVSS | high polyreactivity
28 | QVQLVESGGGLVQAGGSLRLSCAASGRIFTRNAMGWYRQAPGKERELVAAISNGGRTNYADSVKGRFTISRDNAKYTVYLQMNSLKPEDTAVYYCNARYLPRSTIYDYWGQVTQVTVSS | high polyreactivity
29 | QVQLVESGGGLVQAGGSLRLSCAASGRIFTRNAMGWYRQAPGKERELVAAISRSGGSTYYADSVKGRFTISRDNAKNTVYLQMNSLKPEDTAVYYCAKRGYDNYPFYYWGQGTQVTVSS | high polyreactivity
30 | QVQLVESGGGLVQAGGSLRLSCAASGRIFTRNTMGWYRQAPGKERELVAAITSRGGSTYYADSVKGRFTISRDNAKNTVYLQMNSLKPEDTAVYYCAADKPRSYYYWGQGTQVTVSS | high polyreactivity
31 | QVQLVESGGGLVQAGGSLRLSCAASGRIFTRYALGWYRHADGKVRELVATISRGGNTNYADSVKGRFTISRDNANNTVYLQMTSLKPEDTAVYYCAKYPVSRVGGYGYWGQGTQVTVSS | low polyreactivity
32 | QVQLVESGGGLVQAGGSLRLSCAASGRIFTRYAMGWYRQAPGKERELVATITKSGGSTYYADSVKGRFTISRDNAKNTVYLQMNSLKPEDTAVYYFAADSWWTYQYDYWGQGTQVTVSS | low polyreactivity
33 | QVQLVESGGGLVQAGGSLRLSCAASGRIFTRYTMGWYRQAPGKESELVAAISRSGGSTYYADSVKGRFTISRDNEKNTVYLQMNSLKPEDTAVYYCAAKGPYTYGYGYWGQGTQVTVSS | high polyreactivity
34 | QVQLVESGGGLVQAGGSLRLSCAASGRIFTSNAMGWYRQAPGKEREFVAAITKRGGRTYYADSVKGRFTISRDNAKNTVYLQMNSLLPEDTAVYYCAAGATGTSYYGGDYWGQGTQVTVSS | high polyreactivity
35 | QVQLVESGGGLVQAGGSLRLSCAASGRIFTSNAMGWYSQAPGKERELVAAITKSGGSTYYADSVKGRFTISRDNAKNTVYLQMNSLKPEVTAVYYCSAYPTSRYKYEYWGQGNQVTVSS | high polyreactivity
36 | QVQLVESGGGLVQAGGSLRLSCAASGRIFTSNTMGWNRQAPGKERELGAAITSSGGYMYYADSVKGRFTISRDNAKNTGYLQMNSLKPEDTAVYYCAADTIGYHYWYDYWGQGTQVTVSS | low polyreactivity
37 | QVQLVESGGGLVQAGGSLRLSCAASGRIFTSYAMGWYRQAPGKERELVAAISSGGSTYYADSVKGRFTISRDNAKNTVYLQMNSLKPEDTAVYYCNAQSTRRYYYYWGQGTQVTVSS | high polyreactivity
38 | QVQLVESGGGLVQAGGSLRLSCAASGRIFTTNAMGWYRQAPGKERELVAAITYSGGTTYYADSVKGRFTISRDNAKNTVYLQMNSLKPEDTAVYYCAADVKFSTPYDYWGQGTQVTVSS | low polyreactivity
39 | QVQLVESGGGLVQAGGSLRLSCAASGRIFTTYAMGWYRQAPGKERELVAAISRSGGSTYYADSVKGRFTISRDNAKNTVYLQMTSLNPEDTAVYYCAAVPTSNSFRSSFYYWGQGTQVTVSS | high polyreactivity
40 | QVQLVESGGGLVQAGGSLRLSCAASGRIFTTYAMGWYRQAPGKERELVASISWRVGSTYYADTVKGRFTISRDNAKITVYLQMNSLKPEETAVYYCAAVGGNYHASRLRYYWGQVTQVTVSS | low polyreactivity
41 | QVQLVESGGGLVQAGGSLRLSCAASGRIFTTYVMGCYRQAPGKERELVAAISWSGGNTYYADSVKGRFTISRDNAKNTVYLQMNSLKPEDTAVYYCNAVGTIREGDYWGQGTQVTVSS | low polyreactivity
42 | QVQLVESGGGLVQAGGSLRLSCAASGRIFTWNAMGWYRQAPGKERELVASISRSGTSTYYADSVKGRFTISRDNAKNSVYLQMNSLKAEDTAVYYCAAKRYGYKMYYWGQGTQVTVSS | high polyreactivity
43 | QVQLVESGGGLVQAGGSLRLSCAASGRIFTYAMGWYRQAPGKERELVAAISRRGGSTYYADSVKGRFTISRDNAKNTVYLQMNSLKPEDTAVYYCAKERSFGDGNFDYEYWGQGTQVTVSS | high polyreactivity
